Test results taken from doi:10.1101/2025.03.26.645438.

Biological target: Human GLP1R protein (human) (UniProt P43220)
Sequence (P43220 24-463): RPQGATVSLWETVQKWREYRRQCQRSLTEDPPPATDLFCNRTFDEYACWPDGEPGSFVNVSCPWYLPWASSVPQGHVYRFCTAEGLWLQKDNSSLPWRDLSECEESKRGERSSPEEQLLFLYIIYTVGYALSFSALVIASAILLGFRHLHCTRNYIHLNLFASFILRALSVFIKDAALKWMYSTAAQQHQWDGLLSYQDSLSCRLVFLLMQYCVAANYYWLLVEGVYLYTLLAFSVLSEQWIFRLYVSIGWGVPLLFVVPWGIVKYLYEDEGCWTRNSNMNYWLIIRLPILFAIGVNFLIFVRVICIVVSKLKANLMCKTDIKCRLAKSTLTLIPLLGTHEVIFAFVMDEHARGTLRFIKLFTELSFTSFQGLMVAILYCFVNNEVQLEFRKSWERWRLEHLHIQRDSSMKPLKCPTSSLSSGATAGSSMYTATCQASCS

Substance: Semaglutide (peptide)
- cAMP accumulation (HTRF) in HEK293 cells stably expressing human GLP-1R, EC50: 0.019 nM
